Experimental data published in US20220119534A1 (DRAGONFLY THERAPEUTICS, published 2022).
Substitutions are numbered along the chain they refer to. Numbers in names are those of the source. Where “and” joins values, the source holds several entries; their conditions need not be identical. Equal entries are not always repeated. Blank lines part the entries; values can stand above or below the binder they belong to.

Assays:
Human CLEC12A-His [1] = target: T1, Human CLEC12A-His (human, UniProt Q5QGZ9 65-265); assay: cell-based or functional assay
T1 sequence: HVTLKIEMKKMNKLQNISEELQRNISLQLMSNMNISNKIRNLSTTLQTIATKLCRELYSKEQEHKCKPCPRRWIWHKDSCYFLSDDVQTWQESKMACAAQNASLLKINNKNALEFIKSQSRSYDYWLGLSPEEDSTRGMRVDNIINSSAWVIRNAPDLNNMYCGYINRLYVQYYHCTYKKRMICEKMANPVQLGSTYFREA

mFc-hNKG2D [2] = target: T2, mFc-hNKG2D (human, UniProt P26718 73-216); assay: SPR Biacore 8K 37 C; mFc-hNKG2D captured on anti-mFc chip, TriNKET as analyte; 1:1 kinetic fit
T2 construct: extracellular domain; Made in house (Dragonfly Tx); the order of tag and ECD follows the name mFc-hNKG2D; also called mFc-tagged human NKG2D; not shown: mouse Fc tag
T2 sequence (looked up): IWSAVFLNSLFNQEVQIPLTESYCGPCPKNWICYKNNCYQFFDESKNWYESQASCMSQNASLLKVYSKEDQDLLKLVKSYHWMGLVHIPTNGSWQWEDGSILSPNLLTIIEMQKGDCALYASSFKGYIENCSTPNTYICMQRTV

Human CLEC12A-His [3] = target: T1, Human CLEC12A-His; assay: SPR Biacore 8K 37 C; TriNKET captured on anti-hFc chip, hCLEC12A-His as analyte; 1:1 fit; pH 5.0 control, n=2
mFc-hNKG2D [4] = target: T2, mFc-hNKG2D; assay: SPR Biacore 8K 37 C; mFc-hNKG2D captured on anti-mFc chip, TriNKET as analyte; steady state fit; after 2 wks 40 C at pH 8.0
Procedure: Association was monitored for 60 seconds and dissociation was monitored for 60 seconds. Surfaces were regenerated between cycles with three pulses of 10 mM glycine-HCl, pH 1.7 injected for 20 seconds at 100 μL/min. HBS-EP+ (1×) buffer was used throughout the experiment. Data were analyzed using Biacore 8K Insight evaluation software (GE Healthcare).

Human CLEC12A-His [5] = target: T1, Human CLEC12A-His; assay: SPR Biacore 8K 37 C; TriNKET captured on anti-hFc chip, hCLEC12A-His as analyte; 1:1 fit; after 2 wks 25 C in CST pH 7.0, n=2
Procedure: Briefly, human Fc specific antibodies were covalently immobilized at a density ˜8000-10000 resonance units (RU) on carboxy methyl dextran matrix of a CM5 biosensor chip via amine-coupling chemistry to create an anti-hFc IgG chip. […] Association was monitored for 300 seconds and dissociation was monitored for 600 seconds. Surfaces were regenerated between cycles with three pulses of 10 mM glycine-HCl, pH 1.7 injected for 20 seconds at 100 μL/min. HBS-EP+ (1×) with 0.1 mg/mL BSA buffer was used throughout the experiment. Data were analyzed using Biacore 8K Insight evaluation software (GE Healthcare). The kinetic rate constants and overall affinity were obtained using 1:1 kinetic fit binding model (FIGS. 71A-71B).

Human CLEC12A-His [6] = target: T3, Human CLEC12A-His (human, UniProt Q5QGZ9 65-265); assay: SPR; sample after low pH hold
T3 construct: Recombinant soluble protein made in house; also called hCLEC12A-His; hCLEC12A; not shown: His tag
T3 sequence: T1 sequence

mFc-hNKG2D [7] = target: T4, mFc-hNKG2D (human, UniProt P26718 73-216); assay: SPR; sample after low pH hold
T4 construct: extracellular domain; Recombinant mFc-tagged NKG2D dimer, made in house; also called human NKG2D; not shown: mouse Fc tag
T4 sequence (looked up): T2 sequence (looked up)

Human CD16a V158 [8] = target: T5, Human CD16a V158 (human, UniProt P08637 17-208, biotinylated); assay: SPR; sample after low pH hold
T5 construct: Bought recombinant receptor; also called hCD16a (V158); hFcγRIIIa V158

Human CD16a F158 = target: T6, Human CD16a F158 (human, UniProt P08637 17-208, biotinylated); assay: SPR, steady state fit; average for AB0192
T6 construct: Bought recombinant receptor; also called hFcγRIIIa F158

Cynomolgus CD16 = target: T7, Cynomolgus CD16 (cynomolgus monkey, UniProt Q8SPW2 17-208, biotinylated); assay: SPR, steady state fit; average for AB0192
T7 construct: Bought recombinant receptor; also called cFcγRIII; Cynomolgus FcγRIII

Human CD16a V158 [9] = target: T5, Human CD16a V158; assay: SPR; control sample (forced oxidation study)
[10] = target: T8, Human CLEC12A expressed on cells (Ba/F3-hCLEC12A, PL21, HL60) (human, UniProt Q5QGZ9 1-265); assay: flow cytometry on Ba/F3-hCLEC12A cells
T8 construct: Ba/F3 cells transduced with human CLEC12A; PL21 and HL60 AML lines express it endogenously; also called cell surface expressed CLEC12A
T8 sequence: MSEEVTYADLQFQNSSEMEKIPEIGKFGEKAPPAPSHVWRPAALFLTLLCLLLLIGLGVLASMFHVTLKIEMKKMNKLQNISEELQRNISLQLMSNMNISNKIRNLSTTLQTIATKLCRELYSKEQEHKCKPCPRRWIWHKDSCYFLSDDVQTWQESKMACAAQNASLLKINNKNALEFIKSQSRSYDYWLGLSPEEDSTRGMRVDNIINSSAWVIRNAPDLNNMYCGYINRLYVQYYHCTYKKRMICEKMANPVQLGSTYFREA

[11] = target: T9, Human CLEC12A-His (recombinant, K244 WT) (human, UniProt Q5QGZ9 65-265); assay: SPR, two-state fit; after forced oxidation
T9 construct: Made in house (Dragonfly Tx); also called hCLEC12A; hCLEC12A-His; not shown: His tag
T9 sequence: T1 sequence

[12] = target: T9, Human CLEC12A-His (recombinant, K244 WT); assay: SPR, two-state fit (ka1); after pH 5.0, 40C, 2 wks
Procedure: (§1) Briefly, human Fc specific antibodies were covalently immobilized at a density ˜8000-10000 resonance units (RU) on carboxy methyl dextran matrix of a CM5 biosensor chip via amine-coupling chemistry to create an anti-hFc IgG chip. […] Association was monitored for 300 seconds and dissociation was monitored for 600 seconds. Surfaces were regenerated between cycles with three pulses of 10 mM glycine-HCl, pH 1.7 injected for 20 seconds at 100 μl/min. HBS-EP+ (1×) with 0.1 mg/ml BSA was used as running buffer throughout the experiment. Experiments were performed at physiological temperature of 37° C. To obtain kinetic rate constants and overall binding affinity, double-referenced data were fit to a two-state kinetic model using Biacore 8K Insight Evaluation software (Cytiva).

[13] = target: T9, Human CLEC12A-His (recombinant, K244 WT); assay: SPR, two-state fit (kd1); after 4 wks 40C in CST pH 7.0
Procedure: as §1

recombinant human CD16b = target: T10, recombinant human CD16b (human, UniProt O75015 17-200, limits assumed, biotinylated); assay: SPR 25C, steady state
T10 construct: also called FcγRIIIb

[14] = target: T11, recombinant human CD16a F158 (human, UniProt P08637 17-208); assay: SPR 25C, steady state, average
T11 construct: also called FcγRIIIa F158
T11 sequence (P08637 17-208 limits assumed): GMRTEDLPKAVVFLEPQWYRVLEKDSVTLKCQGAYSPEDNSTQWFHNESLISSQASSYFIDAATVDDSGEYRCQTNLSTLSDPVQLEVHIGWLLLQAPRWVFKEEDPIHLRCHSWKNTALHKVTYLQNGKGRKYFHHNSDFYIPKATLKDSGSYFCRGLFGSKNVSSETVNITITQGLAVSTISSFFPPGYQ

T5 sequence (P08637 17-208 F176V limits assumed): as the sequence (P08637 17-208 limits assumed) above, with F160V counted along it
T10 sequence (O75015 17-200 limits assumed): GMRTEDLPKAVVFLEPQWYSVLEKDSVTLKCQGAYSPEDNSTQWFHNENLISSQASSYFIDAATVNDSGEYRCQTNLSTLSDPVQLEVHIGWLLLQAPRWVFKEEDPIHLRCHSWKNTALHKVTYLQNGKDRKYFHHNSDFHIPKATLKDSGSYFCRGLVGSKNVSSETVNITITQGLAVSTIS
T7 sequence (Q8SPW2 17-208 limits assumed): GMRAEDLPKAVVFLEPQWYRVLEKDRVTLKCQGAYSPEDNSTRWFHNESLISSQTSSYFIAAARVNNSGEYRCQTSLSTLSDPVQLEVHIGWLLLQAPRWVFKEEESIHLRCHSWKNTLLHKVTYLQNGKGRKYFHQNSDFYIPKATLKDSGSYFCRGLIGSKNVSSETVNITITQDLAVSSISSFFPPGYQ
T6 sequence (P08637 17-208 limits assumed): as the sequence (P08637 17-208 limits assumed) above

B1: F3'-1602 TriNKET (bispecific antibody, human IgG1, kappa)
chain: QLQLQESGPGLVKPSETLSLTCTVSGFSLTNYGLHWIRQPPGKCLEWIGVIWSGGKTDYNPSLKSRVTISKDTSKNQFSLKLSSVQAADTAVYYCAKYDYDDSLDYWGQGTLVTVSSGGGGSGGGGSGGGGSGGGGSDIQMTQSPSSLSASVGDRVTITCHASQNINFWLSWYQQKPGKAPKLLIYEASNLHTGVPSRFSGSGSGTRFTLTISSLQPEDIATYYCQQSHSYPLTFGCGTKLEIKGSDKTHTCPPCPAPELLGGPSVFLFPPKPKDTLMISRTPEVTCVVVDVSHEDPEVKFNWYVDGVEVHNAKTKPREEQYNSTYRVVSVLTVLHQDWLNGKEYKCKVSNKALPAPIEKTISKAKGQPREPRVYTLPPCRDELTKNQVSLTCLVKGFYPSDIAVEWESNGQPENNYKTTPPVLVSDGSFTLYSKLTVDKSRWQQGNVFSCSVMHEALHNHYTQKSLSLSPG
heavy: EVQLVESGGGLVKPGGSLRLSCAASGFTFSSYSMNWVRQAPGKGLEWVSSISSSSSYIYYADSVKGRFTISRDNAKNSLYLQMNSLRAEDTAVYYCARGAPIGAAAGWFDPWGQGTLVTVSSASTKGPSVFPLAPSSKSTSGGTAALGCLVKDYFPEPVTVSWNSGALTSGVHTFPAVLQSSGLYSLSSVVTVPSSSLGTQTYICNVNHKPSNTKVDKKVEPKSCDKTHTCPPCPAPELLGGPSVFLFPPKPKDTLMISRTPEVTCVVVDVSHEDPEVKFNWYVDGVEVHNAKTKPREEQYNSTYRVVSVLTVLHQDWLNGKEYKCKVSNKALPAPIEKTISKAKGQPREPQVCTLPPSRDELTENQVSLTCLVKGFYPSDIAVEWESNGQPENNYKTTPPVLDSDGSFFLYSWLTVDKSRWQQGNVFSCSVMHEALHNHYTQKSLSLSPG
light: DIQMTQSPSSVSASVGDRVTITCRASQGISSWLAWYQQKPGKAPKLLIYAASSLQSGVPSRFSGSGSGTDFTLTISSLQPEDFATYYCQQGVSFPRTFGGGTKVEIKRTVAAPSVFIFPPSDEQLKSGTASVVCLLNNFYPREAKVQWKVDNALQSGNSQESVTEQDSKDSTYSLSSTLTLSKADYEKHKVYACEVTHQGLSSPVTKSFNRGEC
notes: Trispecific F3' format: CLEC12A scFv-Fc paired with NKG2D Fab-Fc; Stressed and control samples of the stability studies are the same molecule; also called AB0237
- EC50 (nM), lysis of CLEC12A+ PL21 cells by KHYG-1-CD16a cells; HST formulation, 40 C, 4 wks (Human CLEC12A-His [1]): 1.21 nM
- EC50 (nM), lysis of CLEC12A+ PL21 cells by KHYG-1-CD16a cells; control sample (Human CLEC12A-His [1]): 0.17 nM
- koff (mFc-hNKG2D [2]): 0.126 s⁻¹ and 0.13 s⁻¹ and 0.131 s⁻¹ and 0.132 s⁻¹
- kon (mFc-hNKG2D [2]): 180000 M⁻¹ s⁻¹ and 184000 M⁻¹ s⁻¹ and 175000 M⁻¹ s⁻¹
- Kd (Human CLEC12A-His [3]): 1.07 nM
- koff (Human CLEC12A-His [3]): 0.000853 s⁻¹
- kon (Human CLEC12A-His [3]): 799000 M⁻¹ s⁻¹
- Kd (mFc-hNKG2D [4]): 919 nM
- Kd (Human CLEC12A-His [5]): 0.93 nM
- koff (Human CLEC12A-His [5]): 0.000765 s⁻¹
- kon (Human CLEC12A-His [5]): 824000 M⁻¹ s⁻¹

B4: F3'-1602 TriNKET (other)
chain: B1 chain
heavy: B1 heavy
light: B1 light
notes: CLEC12A scFv-Fc, NKG2D A49MI Fab-Fc, human IgG1 Fc; also called AB0237
- Kd (recombinant human CD16b): 7600 nM and 7200 nM and 8600 nM and 6500 nM
- Kd [14]: 1110 nM

Results, then the binder that gave them:

- Kd (Human CLEC12A-His [6]): 1.66 nM
- koff (Human CLEC12A-His [6]): 0.00115 s⁻¹
- kon (Human CLEC12A-His [6]): 690000 M⁻¹ s⁻¹
- Kd (mFc-hNKG2D [7]): 796 nM
- koff (mFc-hNKG2D [7]): 0.142 s⁻¹
- kon (mFc-hNKG2D [7]): 178000 M⁻¹ s⁻¹
- Kd (Human CD16a V158 [8]): 180 nM
- koff (Human CD16a V158 [8]): 0.0212 s⁻¹
- kon (Human CD16a V158 [8]): 118000 M⁻¹ s⁻¹
- Kd (Human CD16a F158): 680 nM
- Kd (Cynomolgus CD16): 204 nM
- Kd (Human CD16a V158 [9]): 177 nM
- koff (Human CD16a V158 [9]): 0.0202 s⁻¹
- kon (Human CD16a V158 [9]): 115000 M⁻¹ s⁻¹
B2: AB0192 TriNKET (other)
chain: EVQLVESGGGVVQPGGSLRLSCAASGFTFNAFGMHWVRQAPGKCLEWVAFISSGSTSIYYANTVKGRFTISRDNSKNTLYLQMNSLRAEDTAVYYCARDGYPTGGAMDYWGQGTSVTVSSGGGGSGGGGSGGGGSGGGGSDIQMTQSPSSLSASVGDRVTITCKASQDIYNYLSWFQQKPGKAPKPLIYRANILVSGVPSRFSGSGSGQDYTFTISSLQPEDIATYYCLQFDAFPFTFGCGTKLEIKGSDKTHTCPPCPAPELLGGPSVFLFPPKPKDTLMISRTPEVTCVVVDVSHEDPEVKFNWYVDGVEVHNAKTKPREEQYNSTYRVVSVLTVLHQDWLNGKEYKCKVSNKALPAPIEKTISKAKGQPREPRVYTLPPCRDELTKNQVSLTCLVKGFYPSDIAVEWESNGQPENNYKTTPPVLVSDGSFTLYSKLTVDKSRWQQGNVFSCSVMHEALHNHYTQKSLSLSPG
heavy: B1 heavy
light: B1 light
notes: the condition stands under assay; also called AB0192 Lot AB0192-005

- EC50 [10]: 4.02 nM
- Kd [11]: 0.9 nM
- kon [12]: 8.62e+06 M⁻¹ s⁻¹
- koff [13]: 0.0373 s⁻¹
B3: AB0089 TriNKET (bispecific antibody, human IgG1, kappa)
chain: B1 chain with S53V, K56A, K71V, Y98G, D101G, S103T, R207D, I220F
heavy: B1 heavy
light: B1 light
notes: F3' format heterodimer of three chains; human IgG1 Fc with EW-RVT and Y349C/S354C mutations; also called AB0089 Lot AB0089-002; CLEC12A TriNKET AB0089
